Data reported in patent publication US20200377590A1 (Hoffmann-La Roche, published 2020).

B1: CD81K13 HC 01-hVH_1_f / LC 04-hVK_1_9 (antibody, V domains shown)
VH: EVQLVQSGAEVKKPGATVKISCKVSGYTFTDSYMHWVQQAPGKGLEWMGRIDTGNGNVKFDPKFQGRVTITADTSTDTAYMELSSLRSEDTAVYYCAPYGYGFHSWGQGTLVTVSS
VL: DIQLTQSPSFLSASVGDRVTITCRASENIYRTLAWYQQKPGKAPKLLIYAATTLASGVPSRFSGSGSGTEFTLTISSLQPEDFGTYYCQHFWGTPWTFGQGTKVEIK
notes: human constant region
B2: CD81K13 HC 01-hVH_1_f / LC 07-hVK_1_27 (antibody, V domains shown)
VH: EVQLVQSGAEVKKPGATVKISCKVSGYTFTDSYMHWVQQAPGKGLEWMGRIDTGNGNVKFDPKFQGRVTITADTSTDTAYMELSSLRSEDTAVYYCAPYGYGFHSWGQGTLVTVSS
VL: DIQMTQSPSSLSASVGDRVTITCRASENIYRTLAWYQQKPGKVPKLLIYAATTLASGVPSRFSGSGSGTDFTLTISSLQPEDVGTYYCQKFWGTPWTFGQGTKVEIK
notes: human constant region
B3: CD81K13 HC 01-hVH_1_f / LC 5b-hVK_1_39 (antibody, V domains shown)
VH: EVQLVQSGAEVKKPGATVKISCKVSGYTFTDSYMHWVQQAPGKGLEWMGRIDTGNGNVKFDPKFQGRVTITADTSTDTAYMELSSLRSEDTAVYYCAPYGYGFHSWGQGTLVTVSS
VL: DIQMTQSPSSLSASVGDRVTITCRASENIYRTLAWYQQKPGKAPKLLIYGATTLADGVPSRFSGSGSGTDFTLTISSLQPEDFATYYCQHFWGTPWTFGQGTKVEIK
notes: human constant region
B4: CD81K13 HC 01-hVH_1_f / LC 06-hVK_1_39 (antibody, V domains shown)
VH: EVQLVQSGAEVKKPGATVKISCKVSGYTFTDSYMHWVQQAPGKGLEWMGRIDTGNGNVKFDPKFQGRVTITADTSTDTAYMELSSLRSEDTAVYYCAPYGYGFHSWGQGTLVTVSS
VL: DIQMTQSPSSLSASVGDRVTITCRASENIYRTLAWYQQKPGKAPKLLIYAATTLASGVPSRFSGSGSGTDFTLTISSLQPEDFGTYYCQHFWGTPWTFGQGTKVEIK
notes: human constant region
B5: CD81K13 HC 01-hVH_1_f / LC 05-hVK_1_39 (antibody, V domains shown)
VH: EVQLVQSGAEVKKPGATVKISCKVSGYTFTDSYMHWVQQAPGKGLEWMGRIDTGNGNVKFDPKFQGRVTITADTSTDTAYMELSSLRSEDTAVYYCAPYGYGFHSWGQGTLVTVSS
VL: DIQMTQSPSSLSASVGDRVTITCRASENIYRTLAWYQQKPGKAPKLLIYAATTLASGVPSRFSGSGSGTDFTLTISSLQPEDFATYYCQHFWGTPWTFGQGTKVEIK
notes: human constant region
B6: CD81K13 HC 01-hVH_1_f / LC 5b-hVK_1_39-GA (antibody, V domains shown)
VH: EVQLVQSGAEVKKPGATVKISCKVSGYTFTDSYMHWVQQAPGKGLEWMGRIDTGNGNVKFDPKFQGRVTITADTSTDTAYMELSSLRSEDTAVYYCAPYGYGFHSWGQGTLVTVSS
VL: DIQMTQSPSSLSASVGDRVTITCRASENIYRTLAWYQQKPGKAPKLLIYGATTLADGVPSRFSGSGSGTDFTLTISSLQPEDFATYYCQHFWGTPWTFGQGTKVEIK
notes: human constant region
B7: CD81K13 HC 02-hVH_1_3 / LC CD81K13 (antibody, V domains shown)
VH: QVQLVQSGAEVKKPGASVKVSCKASGYTFTDSYMHWVRQAPGQRLEWMGRIDTGNGNTKYSQKFQGRVTITTDTSASTAYMELSSLRSEDTAVYYCAPYGYGFHSWGQGTLVTVSS
VL: DIQMTQSPASLSVSVGETVTITCRASENIYRTLAWYLQKQGKSPQLLVYGATTLADGVPSRFSGSGSGTQYYLKINSLQSEDFGTYHCQHFWGTPWTFGGGTKVEIK
notes: human constant region
B8: CD81K13 HC 02-hVH_1_3 / LC 1b-hVK_3_15 (antibody, V domains shown)
VH: QVQLVQSGAEVKKPGASVKVSCKASGYTFTDSYMHWVRQAPGQRLEWMGRIDTGNGNTKYSQKFQGRVTITTDTSASTAYMELSSLRSEDTAVYYCAPYGYGFHSWGQGTLVTVSS
VL: EIVMTQSPATLSVSPGERATLSCRASENIYRTLAWYQQKPGQAPRLLIYGATTLADGIPARFSGSGSGTEFTLTISSLQSEDFAVYYCQHFWGTPWTFGQGTKVEIK
notes: human constant region
B9: CD81K13 HC 02-hVH_1_3 / LC 01-hVK_3_15 (antibody, V domains shown)
VH: QVQLVQSGAEVKKPGASVKVSCKASGYTFTDSYMHWVRQAPGQRLEWMGRIDTGNGNTKYSQKFQGRVTITTDTSASTAYMELSSLRSEDTAVYYCAPYGYGFHSWGQGTLVTVSS
VL: EIVMTQSPATLSVSPGERATLSCRASENIYRTLAWYQQKPGQAPRLLIYGATTRATGIPARFSGSGSGTEFTLTISSLQSEDFGVYYCQHFWGTPWTFGQGTKVEIK
notes: human constant region

Target: T1, CD81 (UniProt P60033 1-236, limits assumed)
T1 construct: whole, on cells; also called CD81 receptor
T1 sequence (looked up): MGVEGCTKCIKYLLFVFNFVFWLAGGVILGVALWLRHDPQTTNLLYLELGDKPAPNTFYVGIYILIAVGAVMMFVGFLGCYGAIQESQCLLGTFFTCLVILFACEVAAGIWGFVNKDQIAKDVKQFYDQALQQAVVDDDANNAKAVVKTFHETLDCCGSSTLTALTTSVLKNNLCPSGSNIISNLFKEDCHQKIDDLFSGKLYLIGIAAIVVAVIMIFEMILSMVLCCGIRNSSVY
Assay: cell ELISA;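 further: antibody binding to HuH7 cells expressing CD81 versus a CD81-negative HuH7 control line, bound antibody detected by secondary reagent, absorbance at 450 nm with 620 nm reference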
Experimental: For the binding cell ELISA assay, HuH7-Rluc-H3 (positive cell line expressing CD81) and HuH7-Rluc-L1 (negative control cell line) were propagated in F-12 DMEM medium with 10% FCS at 37° C. and 5% CO₂. On day 1, the cells were trypsinized at approximately 90% confluence and resuspended at 4×10⁵ cells/mL. […] On day 2, the antibody samples to be tested were prepared in a separate polypropylene round bottom plate with a twofold desired concentration with a final volume of 120 μl. All of the assay samples were diluted in cell culture medium. […] After fixation, each well was washed 3 times with 200 μL PBS/0.05% Tween. The secondary incubation step for detection of bound anti-CD81 antibodies was performed for 2 h at room temperature on a reciprocal shaker. […] Each well was washed three times with 200 μL PBS/0.05% Tween to remove unbound antibodies. […] The absorbance was read using the ELISA Tecan reader at 450 nm with 620 nm reference wavelength.

Binder	ELISA data
B1	0.244
B2	0.086
B3	0.89
B4	0.822
B5	0.458
B6	0.848
B7	0.585
B8	0.347
B9	0.314
